Measurements reported in patent US20150250895A1 (GEORGETOWN UNIVERSITY, published 2015).

Molecular target: T1, activated matriptase (human, UniProt Q9Y5Y6 1-855)
T1 sequence (looked up): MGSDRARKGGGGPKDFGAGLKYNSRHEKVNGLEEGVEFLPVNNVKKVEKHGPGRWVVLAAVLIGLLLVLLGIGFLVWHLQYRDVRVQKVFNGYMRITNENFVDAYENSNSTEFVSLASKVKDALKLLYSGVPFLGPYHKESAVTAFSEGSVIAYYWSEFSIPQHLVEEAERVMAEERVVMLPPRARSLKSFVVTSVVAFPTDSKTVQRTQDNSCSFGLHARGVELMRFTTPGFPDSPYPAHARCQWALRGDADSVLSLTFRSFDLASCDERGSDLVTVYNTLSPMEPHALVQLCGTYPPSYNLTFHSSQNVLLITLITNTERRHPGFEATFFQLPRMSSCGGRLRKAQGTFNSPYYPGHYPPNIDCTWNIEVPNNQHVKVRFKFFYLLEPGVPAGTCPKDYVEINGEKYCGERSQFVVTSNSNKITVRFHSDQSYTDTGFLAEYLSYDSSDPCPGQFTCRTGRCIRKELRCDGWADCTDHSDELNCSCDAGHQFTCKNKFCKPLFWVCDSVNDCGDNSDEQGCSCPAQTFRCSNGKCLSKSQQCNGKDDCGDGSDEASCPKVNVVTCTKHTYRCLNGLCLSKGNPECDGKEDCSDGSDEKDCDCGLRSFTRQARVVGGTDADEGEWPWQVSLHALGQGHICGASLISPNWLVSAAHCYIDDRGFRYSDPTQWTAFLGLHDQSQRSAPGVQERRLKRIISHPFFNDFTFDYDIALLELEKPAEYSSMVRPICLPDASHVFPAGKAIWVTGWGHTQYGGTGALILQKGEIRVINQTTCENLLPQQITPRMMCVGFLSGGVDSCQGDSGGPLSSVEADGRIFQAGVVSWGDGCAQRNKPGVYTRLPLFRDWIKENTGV
Assay: cell-based or functional assay

B1: M17-DOX (monoclonal antibody M17 against activated matriptase conjugated to doxorubicin) (antibody, V domains shown)
VH: EVKLVESGGGLVQPGGSRKLSCAASGFTFSSFGMHWVRQAPEKGLEWVAYISSGSSTLHYADTVKGRFTISRDNPENTLLLMKLPSLCYGLLGSRNLSPRVLQ
VL: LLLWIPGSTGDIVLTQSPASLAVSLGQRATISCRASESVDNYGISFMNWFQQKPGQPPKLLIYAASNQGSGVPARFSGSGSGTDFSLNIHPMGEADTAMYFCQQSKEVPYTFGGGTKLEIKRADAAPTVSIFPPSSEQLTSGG
modifications: doxorubicin coupled via thioether bond formed by the SMCC reaction; sites not stated
  IC50, MTS cell proliferation (cytotoxicity) assay, breast cancer cells MDA-MB468: 0.65 µg/mL
